Legend:
Experiment in all cases: purified protein
Format in all cases: biochemical, Thraustochytrium roseum
Settings in all cases: 100 μM hexadecanol, pH 7.4, 37 °C, acyl-CoA varied 15-90 μM
[1] = tested on: CCCCCCCC(=O)SCCNC(=O)CCNC(=O)[C@H](O)C(C)(C)COP(=O)(O)OP(=O)(O)OC[C@H]1O[C@@H](n2cnc3c(N)ncnc32)[C@H](O)[C@@H]1OP(=O)(O)O
[2] = tested on: CCCCCCCCCCCCCCCCCC(=O)SCCNC(=O)CCNC(=O)[C@H](O)C(C)(C)COP(=O)(O)OP(=O)(O)OC[C@H]1O[C@@H](n2cnc3c(N)ncnc32)[C@H](O)[C@@H]1OP(=O)(O)O
[3] = tested on: CC/C=C\C/C=C\C/C=C\C/C=C\C/C=C\CCCC(=O)SCCNC(=O)CCNC(=O)[C@H](O)C(C)(C)COP(=O)(O)OP(=O)(O)OC[C@H]1O[C@@H](n2cnc3c(N)ncnc32)[C@H](O)[C@@H]1OP(=O)(O)O
[4] = tested on: CCCCCCCCCCCC(=O)SCCNC(=O)CCNC(=O)[C@H](O)C(C)(C)COP(=O)(O)OP(=O)(O)OC[C@H]1O[C@@H](n2cnc3c(N)ncnc32)[C@H](O)[C@@H]1OP(=O)(O)O
[5] = tested on: CCCCC/C=C\C/C=C\C/C=C\CCCCC(=O)SCCNC(=O)CCNC(=O)[C@H](O)C(C)(C)COP(=O)(O)OP(=O)(O)OC[C@H]1O[C@@H](n2cnc3c(N)ncnc32)[C@H](O)[C@@H]1OP(=O)(O)O
[6] = tested on: CCCCCCCCCCCCCCCC(=O)SCCNC(=O)CCNC(=O)[C@H](O)C(C)(C)COP(=O)(O)OP(=O)(O)OC[C@H]1O[C@@H](n2cnc3c(N)ncnc32)[C@H](O)[C@@H]1OP(=O)(O)O
[7] = tested on: CCCCCCCCCC(=O)SCCNC(=O)CCNC(=O)[C@H](O)C(C)(C)COP(=O)(O)OP(=O)(O)OC[C@H]1O[C@@H](n2cnc3c(N)ncnc32)[C@H](O)[C@@H]1OP(=O)(O)O
[8] = tested on: CCCCCCCCCCCCCC(=O)SCCNC(=O)CCNC(=O)[C@H](O)C(C)(C)COP(=O)(O)OP(=O)(O)OC[C@H]1O[C@@H](n2cnc3c(N)ncnc32)[C@H](O)[C@@H]1OP(=O)(O)O
[9] = tested on: CCCCC/C=C\C/C=C\C/C=C\C/C=C\CCCC(=O)SCCNC(=O)CCNC(=O)[C@H](O)C(C)(C)COP(=O)(O)OP(=O)(O)OC[C@H]1O[C@@H](n2cnc3c(N)ncnc32)[C@H](O)[C@@H]1OP(=O)(O)O
[10] = substrate: CCCCCCCCCC(=O)SCCNC(=O)CCNC(=O)[C@H](O)C(C)(C)COP(=O)(O)OP(=O)(O)OC[C@H]1O[C@@H](n2cnc3c(N)ncnc32)[C@H](O)[C@@H]1OP(=O)(O)O; remark: listed apart in the source
[11] = substrate: CCCCCCCC(=O)SCCNC(=O)CCNC(=O)[C@H](O)C(C)(C)COP(=O)(O)OP(=O)(O)OC[C@H]1O[C@@H](n2cnc3c(N)ncnc32)[C@H](O)[C@@H]1OP(=O)(O)O; remark: listed apart in the source
[12] = substrate: CCCCCCCCCCCCCCCCCC(=O)SCCNC(=O)CCNC(=O)[C@H](O)C(C)(C)COP(=O)(O)OP(=O)(O)OC[C@H]1O[C@@H](n2cnc3c(N)ncnc32)[C@H](O)[C@@H]1OP(=O)(O)O; remark: listed apart in the source
[13] = substrate: CCCCCCCCCCCC(=O)SCCNC(=O)CCNC(=O)[C@H](O)C(C)(C)COP(=O)(O)OP(=O)(O)OC[C@H]1O[C@@H](n2cnc3c(N)ncnc32)[C@H](O)[C@@H]1OP(=O)(O)O; remark: listed apart in the source
[14] = substrate: CCCCCCCCCCCCCCCC(=O)SCCNC(=O)CCNC(=O)[C@H](O)C(C)(C)COP(=O)(O)OP(=O)(O)OC[C@H]1O[C@@H](n2cnc3c(N)ncnc32)[C@H](O)[C@@H]1OP(=O)(O)O; remark: listed apart in the source
[15] = substrate: CC/C=C\C/C=C\C/C=C\C/C=C\C/C=C\CCCC(=O)SCCNC(=O)CCNC(=O)[C@H](O)C(C)(C)COP(=O)(O)OP(=O)(O)OC[C@H]1O[C@@H](n2cnc3c(N)ncnc32)[C@H](O)[C@@H]1OP(=O)(O)O; remark: listed apart in the source
[16] = substrate: CCCCC/C=C\C/C=C\C/C=C\CCCCC(=O)SCCNC(=O)CCNC(=O)[C@H](O)C(C)(C)COP(=O)(O)OP(=O)(O)OC[C@H]1O[C@@H](n2cnc3c(N)ncnc32)[C@H](O)[C@@H]1OP(=O)(O)O; remark: listed apart in the source
[17] = substrate: CCCCCCCCCCCCCC(=O)SCCNC(=O)CCNC(=O)[C@H](O)C(C)(C)COP(=O)(O)OP(=O)(O)OC[C@H]1O[C@@H](n2cnc3c(N)ncnc32)[C@H](O)[C@@H]1OP(=O)(O)O; remark: listed apart in the source
[18] = substrate: CCCCC/C=C\C/C=C\C/C=C\C/C=C\CCCC(=O)SCCNC(=O)CCNC(=O)[C@H](O)C(C)(C)COP(=O)(O)OP(=O)(O)OC[C@H]1O[C@@H](n2cnc3c(N)ncnc32)[C@H](O)[C@@H]1OP(=O)(O)O; remark: listed apart in the source

TrWSD5 (ΔTmTrWSD5) (Thraustochytrium roseum; DEL472-494)
Km [1]: 12.25 µM
Vmax [1]: 0.0639 µmol/min/mg
kcat [1]: 0.102 s⁻¹
kcat/Km [1]: 8330 M⁻¹ s⁻¹
Km [2]: 75.87 µM
Vmax [2]: 0.379 µmol/min/mg
kcat [2]: 0.604 s⁻¹
kcat/Km [2]: 7960 M⁻¹ s⁻¹
Km [3]: 106.2 µM
Vmax [3]: 0.312 µmol/min/mg
kcat [3]: 0.498 s⁻¹
kcat/Km [3]: 4690 M⁻¹ s⁻¹
Km [4]: 25.93 µM
Vmax [4]: 0.152 µmol/min/mg
kcat [4]: 0.243 s⁻¹
kcat/Km [4]: 9370 M⁻¹ s⁻¹
Km [5]: 284.68 µM
Vmax [5]: 0.152 µmol/min/mg
kcat [5]: 0.242 s⁻¹
kcat/Km [5]: 850 M⁻¹ s⁻¹
Km [6]: 24.77 µM
Vmax [6]: 0.213 µmol/min/mg
kcat [6]: 0.341 s⁻¹
kcat/Km [6]: 13700 M⁻¹ s⁻¹
Km [7]: 0.96 µM
Vmax [7]: 0.0589 µmol/min/mg
kcat [7]: 0.0941 s⁻¹
kcat/Km [7]: 98300 M⁻¹ s⁻¹
Km [8]: 18.5 µM
Vmax [8]: 0.207 µmol/min/mg
kcat [8]: 0.331 s⁻¹
kcat/Km [8]: 17900 M⁻¹ s⁻¹
Km [9]: 226.35 µM
Vmax [9]: 0.103 µmol/min/mg
kcat [9]: 0.165 s⁻¹
kcat/Km [9]: 729 M⁻¹ s⁻¹

B1: TrWSD4 (Thraustochytrium roseum) (protein)
chain: MAENNNHLDEAVVDEAQREQDVEVEEEVEEEEEEEEEEEEEAVVEDVKATLADGPAEKSPKVAPKQTKRKGRRVKHRASVTTRLIGNLQREAQSKSSWVVGLLFFKSDPGFEAVRETVGKRLLQIPRFRSKLTARRFPAKMEFVELDDDEIDMDYHFRQAFQDRTATLDEVDEFVGSMFDGFNHPMDKPLWQITYIPKLEDGRAVLITNISHIVGDGIAQVEVLMRLLDPVKESKGEKVQKPRTGANKKRKPPALGPFTKAKVFMGGVWEGFFSVISSPDKKNTLRLKDVNKPSPTKRCTFSETIPLDKVKELKNMYEGATLNDVLVTLLTLTLRAYFREVGDKGALRNKVRAQFPINIRSKSEGPFRNDNPRNKFTYGFMPFHVSGNRDASATFWRTKRTLDKIKSSPSPVVQHQVGKVISNIMPLKALNAQLLNLAAKATAQVSNVPGPQDAVTVAGTEVDDMRFLLYSPLSFYVGLLTYNGNLSASFCIDSALADPRLISKHWLPEFEKFYAHAKEAAGESGLIRKPRSCLDCL
Km [10]: 17.6 µM
Vmax [10]: 0.0122 µmol/min/mg
kcat [10]: 0.0154 s⁻¹
kcat/Km [10]: 873 M⁻¹ s⁻¹
Km [11]: 29.93 µM
Vmax [11]: 0.0148 µmol/min/mg
kcat [11]: 0.0185 s⁻¹
kcat/Km [11]: 619 M⁻¹ s⁻¹
Km [12]: 19.15 µM
Vmax [12]: 0.0302 µmol/min/mg
kcat [12]: 0.0379 s⁻¹
kcat/Km [12]: 1980 M⁻¹ s⁻¹
Km [13]: 0.14 µM
Vmax [13]: 0.0161 µmol/min/mg
kcat [13]: 0.0202 s⁻¹
kcat/Km [13]: 146000 M⁻¹ s⁻¹
Km [14]: 3.08 µM
Vmax [14]: 0.0255 µmol/min/mg
kcat [14]: 0.032 s⁻¹
kcat/Km [14]: 10400 M⁻¹ s⁻¹
Km [15]: 131.16 µM
Vmax [15]: 0.00905 µmol/min/mg
kcat [15]: 0.0114 s⁻¹
kcat/Km [15]: 86.6 M⁻¹ s⁻¹
Km [16]: 280.86 µM
Vmax [16]: 0.0188 µmol/min/mg
kcat [16]: 0.0236 s⁻¹
kcat/Km [16]: 84 M⁻¹ s⁻¹
Km [17]: 3.94 µM
Vmax [17]: 0.0202 µmol/min/mg
kcat [17]: 0.0254 s⁻¹
kcat/Km [17]: 6440 M⁻¹ s⁻¹
Km [18]: 297.17 µM
Vmax [18]: 0.0118 µmol/min/mg
kcat [18]: 0.0148 s⁻¹
kcat/Km [18]: 49.9 M⁻¹ s⁻¹

Source: article PMC5513132, “Two bifunctional enzymes from the marine protist Thraustochytrium roseum: biochemical characterization of wax ester synthase/acyl-CoA:diacylglycerol acyltransferase activity catalyzing wax ester and triacylglycerol synthesis” (Biotechnology for Biofuels, 2017)
